Measured values published in patent US20170037111A1, “Novel peptides and combination of peptides for use in immunotherapy against ovarian cancer and other cancers” (immatics biotechnologies GmbH, priority 2015, published 2017).

What follows are substances tested against HLA-A*02:01 (Homo sapiens, UniProt P04439, D140Y/D185E/D98H/E176V/E277Q/G131W/G231S/I119V/I121R/I166T/I218V/L300P/L318F/N151K/N90K/P208A/P217A/Q86G/Q94H/R138H/R169H/T345S) (assay: MHC binding assay (UV-ligand exchange, β2m ELISA, peptide exchange yield)). Conditions: MHC class I binding score; binding to HLA-A*02:01 ranged by peptide exchange yield (UV-ligand exchange, β2m ELISA).
Description: Candidate peptides for T cell based therapies according to the present invention were further tested for their MHC binding capacity (affinity). The individual peptide-MHC complexes were produced by UV-ligand exchange, where a UV-sensitive peptide is cleaved upon UV-irradiation, and exchanged with the peptide of interest as analyzed. Only peptide candidates that can effectively bind and stabilize the peptide-receptive MHC molecules prevent dissociation of the MHC complexes. To determine the yield of the exchange reaction, an ELISA was performed based on the detection of the light chain (β2m) of stabilized MHC complexes. The assay was performed as generally described in Rodenko et al. (Rodenko et al., 2006).
96 well MAXISorp plates (NUNC) were coated over night with 2 ug/ml streptavidin in PBS at room temperature, washed 4× and blocked for 1h at 37° C. in 2% BSA containing blocking buffer. […] Peptide-MHC monomers of the UV-exchange reaction were diluted 100 fold in blocking buffer. Samples were incubated for 1h at 37° C., washed four times, incubated with 2 ug/ml HRP conjugated anti-β2m for 1h at 37° C., washed again and detected with TMB solution that is stopped with […]. Absorption was measured at 450 nm. Candidate peptides that show a high exchange yield (preferably higher than 50%, most preferred higher than 75%) are generally preferred for a generation and production of antibodies or fragments thereof, and/or T cell receptors or fragments thereof, as they show sufficient avidity to the MHC molecules and prevent dissociation of the MHC complexes.

Row | Substance | Peptide exchange
1 | 476 (ALMERTGYSMV; listed as Homo sapiens) [compound 476] | ″+++″ (≧50% = +++)
2 | 531 (YTLPIASSIRL; listed as Homo sapiens) [compound 531] | ″+++″ (≧50% = +++)
3 | 373 (SLLEDKGLAEV; listed as Homo sapiens) [compound 373] | ″++″ (≧20% = ++)
4 | 24 (SLSDGLEEV; listed as Homo sapiens) [compound 24] | ″++″ (≧20% = ++)
5 | 474 (YLDPALELGPRNV; listed as Homo sapiens) [compound 474] | ″+++″ (≧50% = +++)
6 | 312 (IISDLTIAL; listed as Homo sapiens) [compound 312] | ″+++″ (≧50% = +++)
7 | 364 (LLQNEQFEL; listed as Homo sapiens) [compound 364] | ″+++″ (≧50% = +++)
8 | 192 (KMLDGASFTL; listed as Homo sapiens) [compound 192] | ″+++″ (≧50% = +++)
9 | 81 (FLFSQLQYL; listed as Homo sapiens) [compound 81] | ″++″ (≧20% = ++)
10 | 20 (RMIEYFIDV; listed as Homo sapiens) [compound 20] | ″+++″ (≧50% = +++)
11 | 623 (YLVEDIQHI; listed as Homo sapiens) [compound 623] | ″+++″ (≧50% = +++)
12 | 208 (KISPVTFSV; listed as Homo sapiens) [compound 208] | ″+++″ (≧50% = +++)
13 | 464 (ALNDCIYSV; listed as Homo sapiens) [compound 464] | ″+++″ (≧50% = +++)
14 | 177 (YLLPEEYTSTL; listed as Homo sapiens) [compound 177] | ″++++″ (≧75% = ++++)
15 | 329 (FLVTLNNVEV; listed as Homo sapiens) [compound 329] | ″++++″ (≧75% = ++++)
16 | 75 (GLLEVMVNL; listed as Homo sapiens) [compound 75] | ″+++″ (≧50% = +++)

Row | Substance | Peptide exchange
17 | 336 (ILLTAIVQV; listed as Homo sapiens) [compound 336] | ″+++″ (≧50% = +++)
18 | 270 (LLLDEEGTFSL; listed as Homo sapiens) [compound 270] | ″++″ (≧20% = ++)
19 | 289 (VLLEIEDLQV; listed as Homo sapiens) [compound 289] | ″++++″ (≧75% = ++++)
20 | 277 (LLPPLESLATV; listed as Homo sapiens) [compound 277] | ″++″ (≧20% = ++)
21 | 593 (GLPRFGIEMV; listed as Homo sapiens) [compound 593] | ″+++″ (≧50% = +++)
22 | 162 (YQQAQVPSV; listed as Homo sapiens) [compound 162] | ″+++″ (≧50% = +++)
23 | 109 (IILSILEQA; listed as Homo sapiens) [compound 109] | ″++++″ (≧75% = ++++)
24 | 510 (KLYSVVSQL; listed as Homo sapiens) [compound 510] | ″++″ (≧20% = ++)
25 | 529 (LLADELITV; listed as Homo sapiens) [compound 529] | ″+++″ (≧50% = +++)
26 | 596 (ALLDQTKTLAESAL; listed as Homo sapiens) [compound 596] | ″+++″ (≧50% = +++)
27 | 590 (SLIEKLWQT; listed as Homo sapiens) [compound 590] | ″++″ (≧20% = ++)
28 | 378 (ALGYFVPYV; listed as Homo sapiens) [compound 378] | ″+++″ (≧50% = +++)
29 | 602 (YLLEQIKLIEV; listed as Homo sapiens) [compound 602] | ″++++″ (≧75% = ++++)
30 | 297 (VLADIELAQA; listed as Homo sapiens) [compound 297] | ″+++″ (≧50% = +++)
31 | 615 (VLPPDTDPA; listed as Homo sapiens) [compound 615] | ″++″ (≧20% = ++)
32 | 480 (ALLEDSCHYL; listed as Homo sapiens) [compound 480] | ″+++″ (≧50% = +++)
